Experiments:
HLA-B*18:01 [1] = experiment: IEDB peptide-MHC binding, purified MHC/direct/fluorescence; filed as Kd, often an IC50 or EC50 that approximates it; ≥ and ≤ were set here for values at or beyond the usual limits of such assays
HLA-A*69:01 [2] = experiment: as above
HLA-A*11:01 [3] = experiment: as above
HLA-A*31:01 = experiment: as above
HLA-A*02:01 [4] = experiment: as above
HLA-B*15:01 [5] = experiment: as above
HLA-B*44:02 = experiment: as above
HLA-B*27:05 = experiment: as above
HLA-A*29:02 [6] = experiment: as above
HLA-B*46:01 [7] = experiment: as above
HLA-B*57:01 [8] = experiment: as above
HLA-A*03:01 [9] = experiment: as above
HLA-A*01:01 = experiment: as above
HLA-B*39:01 [10] = experiment: as above
HLA-A*30:01 = experiment: IEDB peptide-MHC binding, purified MHC/competitive/fluorescence; filed as Kd, often an IC50 or EC50 that approximates it; ≥ and ≤ were set here for values at or beyond the usual limits of such assays; settings: source organism: Human immunodeficiency virus 1
HLA-A*02:03 [11] = experiment: as above; settings: source organism: Human immunodeficiency virus 1
HLA-B*39:01 [12] = experiment: as above
HLA-B*18:01 [13] = experiment: as above
HLA-A*26:01 [14] = experiment: as above
HLA-B*27:03 = experiment: as above
HLA-B*58:01 = experiment: IEDB peptide-MHC binding, purified MHC/direct/fluorescence; filed as Kd, often an IC50 or EC50 that approximates it; ≥ and ≤ were set here for values at or beyond the usual limits of such assays
HLA-B*07:02 = experiment: as above
HLA-B*08:01 = experiment: as above; settings: source organism: West Nile virus
HLA-B*08:02 = experiment: as above; settings: source organism: West Nile virus strain PTRoxo
HLA-B*15:01 [15] = experiment: IEDB peptide-MHC binding, purified MHC/competitive/fluorescence; ≥ and ≤ were set here for values at or beyond the usual limits of such assays
HLA-A*02:19 = experiment: IEDB peptide-MHC binding, purified MHC/direct/fluorescence; filed as Kd, often an IC50 or EC50 that approximates it; ≥ and ≤ were set here for values at or beyond the usual limits of such assays; settings: source organism: Salmonella enterica subsp. enterica serovar Typhimurium
HLA-A*29:02 [16] = experiment: IEDB peptide-MHC binding, purified MHC/competitive/fluorescence; filed as Kd, often an IC50 or EC50 that approximates it; ≥ and ≤ were set here for values at or beyond the usual limits of such assays
HLA-A*69:01 [17] = experiment: as above; settings: source organism: Bos taurus
HLA-A*02:01 [18] = experiment: as above
HLA-A*68:02 = experiment: as above; settings: source organism: Bos taurus
HLA-B*51:01 = experiment: as above
HLA-B*15:17 = experiment: as above
HLA-B*46:01 [19] = experiment: as above
HLA-A*24:03 = experiment: as above
HLA-B*57:01 [20] = experiment: as above
HLA-A*03:01 [21] = experiment: as above
HLA-A*11:01 [22] = experiment: IEDB peptide-MHC binding, purified MHC/competitive/fluorescence; ≥ and ≤ were set here for values at or beyond the usual limits of such assays
HLA-A*02:01 [23] = experiment: as above
HLA-B*15:03 = experiment: IEDB peptide-MHC binding, purified MHC/competitive/radioactivity; filed as Kd, often an IC50 or EC50 that approximates it; ≥ and ≤ were set here for values at or beyond the usual limits of such assays; settings: source organism: Vaccinia virus WR
HLA-A*24:02 = experiment: IEDB peptide-MHC binding, purified MHC/competitive/fluorescence; ≥ and ≤ were set here for values at or beyond the usual limits of such assays
HLA-A*26:01 [24] = experiment: IEDB peptide-MHC binding, purified MHC/direct/fluorescence; filed as Kd, often an IC50 or EC50 that approximates it; ≥ and ≤ were set here for values at or beyond the usual limits of such assays; settings: source organism: Orthohantavirus negraense
HLA-A*02:03 [25] = experiment: as above; settings: source organism: Orthohantavirus negraense
[26] = source organism: Mycobacterium tuberculosis
[27] = source organism: Tai Forest ebolavirus
[28] = source organism: Tai Forest virus - Cote d'Ivoire, Cote d'Ivoire, 1994
[29] = source organism: West Nile virus
[30] = source organism: Salmonella enterica subsp. enterica serovar Typhimurium
[31] = source organism: Vaccinia virus
[32] = source organism: Vaccinia virus Copenhagen
[33] = source organism: Orthohantavirus negraense
[34] = source organism: Ephydatia fluviatilis
[35] = source organism: Sudan ebolavirus

With EKAAWGVAL the Kd (HLA-B*18:01 [1]; [26]) was at least 20 µM, the Kd (HLA-A*69:01 [2]; [26]) was at least 20 µM and the Kd (HLA-A*11:01 [3]; [26]) was at least 20 µM. It also gave a Kd (HLA-A*31:01; [26]) of at least 20 µM, a Kd (HLA-A*02:01 [4]; [26]) of at least 20 µM and a Kd (HLA-B*15:01 [5]; [26]) of at least 20 µM. The Kd (HLA-B*44:02; [26]) was at least 20 µM, the Kd (HLA-B*27:05; [26]) was at least 20 µM and the Kd (HLA-A*29:02 [6]; [26]) was at least 20 µM. The Kd (HLA-B*46:01 [7]; [26]) was at least 20 µM, the Kd (HLA-B*57:01 [8]; [26]) was at least 20 µM and the Kd (HLA-A*03:01 [9]; [26]) was at least 20 µM. It also gave a Kd (HLA-A*01:01; [26]) of at least 20 µM and a Kd (HLA-B*39:01 [10]; [26]) of 0.052 µM.
For EKLKSLYNTV, the Kd (HLA-A*30:01) was 0.175 µM, the Kd (HLA-A*02:03 [11]) was 0.643 µM and the Kd (HLA-B*39:01 [12]; source organism: Human immunodeficiency virus 1) was 2.81 µM.
ETFNTPAMY gave a Kd (HLA-A*69:01 [2]; source organism: Homo sapiens) of 0.0596 µM, a Kd (HLA-A*11:01 [3]; source organism: Homo sapiens) of at least 38.9 µM and a Kd (HLA-A*02:01 [4]; source organism: Homo sapiens) of at least 36.2 µM. It also gave a Kd (HLA-B*15:01 [5]; source organism: Homo sapiens) of 0.554 µM, a Kd (HLA-A*29:02 [6]; source organism: Entamoeba histolytica HM-1:IMSS) of 0.01 µM and a Kd (HLA-A*03:01 [9]; source organism: Homo sapiens) of 10.5 µM. For the same sequence, the Kd (HLA-A*01:01; source organism: Homo sapiens) was 1.27 µM.
Sequence FAEGVIAFL has a Kd (HLA-B*18:01 [13]; [27]) of at least 20 µM, a Kd (HLA-A*26:01 [14]; [27]) of at least 20 µM and a Kd (HLA-B*27:03; [27]) of at least 20 µM. For the same sequence, the Kd (HLA-B*58:01; [28]) was at least 20 µM, the Kd (HLA-A*11:01 [3]; [28]) was at least 20 µM and the Kd (HLA-A*31:01; [28]) was at least 20 µM. For the same sequence, the Kd (HLA-B*15:01 [5]; [28]) was at least 20 µM, the Kd (HLA-B*44:02; [28]) was at least 20 µM and the Kd (HLA-B*27:05; [28]) was at least 20 µM. The Kd (HLA-B*07:02; [28]) was at least 20 µM, the Kd (HLA-B*46:01 [7]; [28]) was at least 20 µM and the Kd (HLA-B*57:01 [8]; [28]) was at least 20 µM. It also gave a Kd (HLA-A*03:01 [9]; [28]) of at least 20 µM, a Kd (HLA-A*01:01; [28]) of at least 20 µM and a Kd (HLA-B*39:01 [10]; [28]) of 0.539 µM.
GMSWITQGL was tested, and the Kd (HLA-B*18:01 [1]; [29]) was at least 20 µM, the Kd (HLA-A*69:01 [2]; [29]) was 1.33 µM and the Kd (HLA-B*58:01; [29]) was at least 20 µM. The Kd (HLA-A*11:01 [3]; [29]) was at least 20 µM, the Kd (HLA-A*31:01; [29]) was at least 20 µM and the Kd (HLA-B*08:01) was at least 20 µM. The Kd (HLA-B*27:05; [29]) was at least 20 µM, the Kd (HLA-B*07:02; [29]) was at least 20 µM and the Kd (HLA-A*29:02 [6]; [29]) was at least 20 µM. For the same sequence, the Kd (HLA-B*46:01 [7]; [29]) was at least 20 µM, the Kd (HLA-B*57:01 [8]; [29]) was at least 20 µM and the Kd (HLA-A*03:01 [9]; [29]) was at least 20 µM. The Kd (HLA-B*08:02) was at least 20 µM and the Kd (HLA-A*01:01; [29]) was at least 20 µM.
For GSLFTEQAF, the IC50 (HLA-B*15:01 [15]; source organism: Vaccinia virus WR) was 5.94 µM.
With GVNACQVGV the Kd (HLA-A*69:01 [2]; [30]) was 0.392 µM, the Kd (HLA-B*58:01; [30]) was 0.392 µM and the Kd (HLA-A*31:01; [30]) was 10.2 µM. The Kd (HLA-A*02:01 [4]; [30]) was 0.239 µM and the Kd (HLA-A*02:19) was 0.023 µM.
Work on IWWEQYMQY yielded a Kd (HLA-A*29:02 [16]; source organism: Shigella boydii) of at most 0.0001 µM.
For KLGEGFKSL, the Kd (HLA-B*18:01 [13]; source organism: Bos taurus) was at least 20 µM, the Kd (HLA-A*69:01 [17]) was at least 20 µM and the Kd (HLA-A*26:01 [14]; source organism: Bos taurus) was at least 20 µM. The Kd (HLA-A*02:01 [18]; source organism: Bos taurus) was 0.0151 µM, the Kd (HLA-A*68:02) was at least 20 µM and the Kd (HLA-B*51:01; source organism: Bos taurus) was at least 20 µM. For the same sequence, the Kd (HLA-B*15:17; source organism: Bos taurus) was at least 20 µM, the Kd (HLA-A*29:02 [16]; source organism: Bos taurus) was at least 20 µM and the Kd (HLA-B*27:03; source organism: Bos taurus) was at least 20 µM. For the same sequence, the Kd (HLA-B*46:01 [19]; source organism: Bos taurus) was at least 20 µM, the Kd (HLA-A*24:03; source organism: Bos taurus) was at least 20 µM and the Kd (HLA-B*57:01 [20]; source organism: Bos taurus) was at least 20 µM. It also gave a Kd (HLA-A*03:01 [21]; source organism: Bos taurus) of at least 20 µM and a Kd (HLA-B*39:01 [12]; source organism: Bos taurus) of at least 20 µM.
Work on KQKMFSNNV yielded an IC50 (HLA-A*11:01 [22]; [31]) of at least 116 µM, an IC50 (HLA-A*02:01 [23]; [31]) of 7.07 µM and an IC50 (HLA-B*15:01 [15]; [31]) of 44.4 µM. The Kd (HLA-B*15:03) was 0.0193 µM.
KTFKDESIF gave an IC50 (HLA-A*24:02; [32]) of 24.2 µM, an IC50 (HLA-A*11:01 [22]; [32]) of 61 µM and an IC50 (HLA-A*02:01 [23]; [32]) of 66.8 µM. The IC50 (HLA-B*15:01 [15]; [32]) was 9.29 µM.
NIYETEFFM was tested, and the Kd (HLA-B*18:01 [13]; [33]) was at least 20 µM, the Kd (HLA-B*51:01; [33]) was at least 20 µM and the Kd (HLA-B*15:17; [33]) was at least 20 µM. The Kd (HLA-B*27:03; [33]) was at least 20 µM, the Kd (HLA-B*46:01 [19]; [33]) was at least 20 µM and the Kd (HLA-B*57:01 [20]; [33]) was at least 20 µM. For the same sequence, the Kd (HLA-B*39:01 [12]; [33]) was at least 20 µM, the Kd (HLA-A*26:01 [24]) was 1.11 µM and the Kd (HLA-A*02:03 [25]) was at least 20 µM. For the same sequence, the Kd (HLA-A*03:01 [9]; [33]) was at least 20 µM.
For TLKPGTMSV, the Kd (HLA-B*18:01 [13]; [34]) was at least 20 µM, the Kd (HLA-A*26:01 [14]; [34]) was at least 20 µM and the Kd (HLA-A*02:01 [18]; [34]) was 0.041 µM. It also gave a Kd (HLA-B*51:01; [34]) of at least 20 µM, a Kd (HLA-B*15:17; [34]) of at least 20 µM and a Kd (HLA-A*29:02 [16]; [34]) of at least 20 µM. For the same sequence, the Kd (HLA-B*27:03; [34]) was at least 20 µM, the Kd (HLA-A*24:03; [34]) was at least 20 µM and the Kd (HLA-B*57:01 [20]; [34]) was at least 20 µM. For the same sequence, the Kd (HLA-A*03:01 [21]; [34]) was at least 20 µM and the Kd (HLA-B*39:01 [12]; [34]) was at least 20 µM.
For VIILFQKAF, the IC50 (HLA-A*24:02; [35]) was 1.61 µM, the IC50 (HLA-A*02:01 [23]; [35]) was at least 544 µM and the IC50 (HLA-B*15:01 [15]; [35]) was at least 143 µM.
Sequence YRKEQQNAV has a Kd (HLA-B*39:01 [10]; source organism: Influenza A virus (A/Belfast/53582/2004(H3N?))) of 0.62 µM.

Reference: the Immune Epitope Database (IEDB)
